# According to patent US20230265151A1, “GIP/GLP1 CO-AGONIST COMPOUNDS” (priority 2020, published 2023):
# Residue numbers refer to the chain shown, from its start.
# T1: human glucose-dependent insulinotropic polypeptide (GIP) receptor (human, UniProt P48546 22-466)
# T1 sequence (looked up): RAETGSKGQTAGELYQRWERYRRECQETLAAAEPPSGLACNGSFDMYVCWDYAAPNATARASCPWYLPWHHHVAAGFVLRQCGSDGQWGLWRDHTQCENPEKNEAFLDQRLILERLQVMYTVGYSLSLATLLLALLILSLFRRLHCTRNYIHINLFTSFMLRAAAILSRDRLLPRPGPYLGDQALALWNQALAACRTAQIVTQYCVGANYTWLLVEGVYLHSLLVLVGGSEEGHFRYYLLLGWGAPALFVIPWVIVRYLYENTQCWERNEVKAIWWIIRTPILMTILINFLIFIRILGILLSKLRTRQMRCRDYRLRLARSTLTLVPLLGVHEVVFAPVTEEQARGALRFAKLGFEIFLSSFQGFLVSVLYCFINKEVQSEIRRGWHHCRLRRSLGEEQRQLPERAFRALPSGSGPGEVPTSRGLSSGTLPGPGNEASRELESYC
# B1: Example 210 (peptide)
# peptide: YXEGTXTSDXSIXLDXKAQXEFIXXLIKGGPSSGAPPPS
# modifications: Aib2, αMeF(2F)6, 4Pal10, αMeL13, Orn16, K17(Z), Aib20, D-Glu24, αMeY25, K28(Z), C-terminal NH2; Z = AEEA2-CO-(CH2)12-CO2H
# B2: Example 252 (peptide)
# peptide: B1 peptide with K17I, X24K
# modifications: Aib2, αMeF(2F)6, 2Nal10, αMeL13, Orn16, Aib20, K24(Z), αMeY25, K28(Z), C-terminal NH2; Z = AEEA2-(γ-Glu)-CO-(CH2)12-CO2H
# B3: Example 208 (peptide)
# peptide: B1 peptide
# modifications: Aib2, αMeF(2F)6, 4Pal10, αMeL13, Orn16, K17(Z), Aib20, D-Glu24, αMeY25, K28(Z), C-terminal NH2; Z = AEEA-(γ-Glu)-(4-(4-tert-butylphenyl)butanoyl)
# B4: Example 266 (peptide)
# peptide: B1 peptide
# modifications: Aib2, αMeF(2F)6, OMeY10, αMeL13, Orn16, K17(Z), Aib20, D-Glu24, αMeY25, K28(Z), C-terminal NH2; Z = AEEA2-CO-(CH2)12-CO2H
# B5: Example 222 (peptide)
# peptide: B1 peptide with K17I, E21K
# modifications: Aib2, αMeF(2F)6, 4Pal10, αMeL13, Orn16, Aib20, K21(Z), D-Glu24, αMeY25, K28(Z), C-terminal NH2; Z = AEEA2-CO-(CH2)12-CO2H
# B6: Example 255 (peptide)
# peptide: B1 peptide with E21K, K28E
# modifications: Aib2, αMeF(2F)6, 2Nal10, αMeL13, Orn16, K17(Z), Aib20, K21(Z), D-Glu24, αMeY25, C-terminal NH2; Z = AEEA2-CO-(CH2)12-CO2H
# B7: Example 253 (peptide)
# peptide: B1 peptide with K17I, E21K
# modifications: Aib2, αMeF(2F)6, 2Nal10, αMeL13, Orn16, Aib20, K21(Z), D-Glu24, αMeY25, K28(Z), C-terminal NH2; Z = AEEA2-(γ-Glu)-CO-(CH2)12-CO2H
# B8: Example 207 (peptide)
# peptide: B1 peptide with E21K, K28E
# modifications: Aib2, αMeF(2F)6, 4Pal10, αMeL13, Orn16, K17(Z), Aib20, K21(Z), D-Glu24, αMeY25, C-terminal NH2; Z = AEEA-(γ-Glu)-(4-(4-tert-butylphenyl)butanoyl)
# B9: Example 226 (peptide)
# peptide: B1 peptide with K17I, X24K
# modifications: Aib2, αMeF(2F)6, 4Pal10, αMeL13, Orn16, Aib20, K24(Z), αMeY25, K28(Z), C-terminal NH2; Z = AEEA3-(γ-Glu)-CO-(CH2)12-CO2H
# B10: Example 263 (peptide)
# peptide: B1 peptide with K17I, E21K
# modifications: Aib2, αMeF(2F)6, OMeY10, αMeL13, Orn16, Aib20, K21(Z), D-Glu24, αMeY25, K28(Z), C-terminal NH2; Z = AEEA2-(γ-Glu)-CO-(CH2)12-CO2H
# B11: Example 256 (peptide)
# peptide: B1 peptide
# modifications: Aib2, αMeF(2F)6, 2Nal10, αMeL13, Orn16, K17(Z), Aib20, D-Glu24, αMeY25, K28(Z), C-terminal NH2; Z = AEEA2-CO-(CH2)12-CO2H
# B12: Example 259 (peptide)
# peptide: B1 peptide with E21K, K28E
# modifications: Aib2, αMeF(2F)6, OMeY10, αMeL13, Orn16, K17(Z), Aib20, K21(Z), D-Glu24, αMeY25, C-terminal NH2; Z = AEEA2-(γ-Glu)-CO-(CH2)12-CO2H
# B13: Example 224 (peptide)
# peptide: B1 peptide
# modifications: Aib2, αMeF(2F)6, 4Pal10, αMeL13, Orn16, K17(Z), Aib20, D-Glu24, αMeY25, K28(Z), C-terminal NH2; Z = AEEA3-(γ-Glu)-CO-(CH2)12-CO2H
# B14: Example 250 (peptide)
# peptide: B1 peptide
# modifications: Aib2, αMeF(2F)6, 2Nal10, αMeL13, Orn16, K17(Z), Aib20, D-Glu24, αMeY25, K28(Z), C-terminal NH2; Z = AEEA2-(γ-Glu)-CO-(CH2)12-CO2H
# B15: Example 249 (peptide)
# peptide: B1 peptide with E21K, K28E
# modifications: Aib2, αMeF(2F)6, 2Nal10, αMeL13, Orn16, K17(Z), Aib20, K21(Z), D-Glu24, αMeY25, C-terminal NH2; Z = AEEA2-(γ-Glu)-CO-(CH2)12-CO2H
# B16: Example 262 (peptide)
# peptide: B1 peptide with K17I, X24K
# modifications: Aib2, αMeF(2F)6, OMeY10, αMeL13, Orn16, Aib20, K24(Z), αMeY25, K28(Z), C-terminal NH2; Z = AEEA2-(γ-Glu)-CO-(CH2)12-CO2H
# B17: Example 260 (peptide)
# peptide: B1 peptide
# modifications: Aib2, αMeF(2F)6, OMeY10, αMeL13, Orn16, K17(Z), Aib20, D-Glu24, αMeY25, K28(Z), C-terminal NH2; Z = AEEA2-(γ-Glu)-CO-(CH2)12-CO2H
# B18: Example 227 (peptide)
# peptide: B1 peptide with K17I, E21K
# modifications: Aib2, αMeF(2F)6, 4Pal10, αMeL13, Orn16, Aib20, K21(Z), D-Glu24, αMeY25, K28(Z), C-terminal NH2; Z = AEEA3-(γ-Glu)-CO-(CH2)12-CO2H
# Molecular target: T1, human glucose-dependent insulinotropic …
# Experiment: cell-based or functional assay
Binder,cAMP EC50 [nM],cAMP Emax [%]
B1,0.02,–
B2,0.049,–
B3,0.018,–
B4,0.0136,–
B5,0.0195,–
B6,0.0213,–
B7,0.0295,–
B8,0.019,–
B9,0.0232,–
B10,0.0214,88.6
B11,0.0175,–
B12,0.0198,–
B13,0.0374,–
B14,0.021,–
B15,0.0201,–
B16,0.0327,–
B17,0.0239,–
B18,0.0224,–

# Molecular target: human glucagon-like peptide-1 (GLP-1) receptor (human, UniProt P43220 24-463)
# Experiment: cell-based or functional assay
Binder,cAMP EC50 [nM],cAMP Emax [%]
B1,0.57,–
B2,0.555,–
B3,0.238,–
B4,0.282,90.5
B5,0.518,–
B6,0.357,–
B7,0.43,–
B8,0.209,–
B9,0.611,–
B10,0.294,–
B11,0.249,–
B12,0.362,–
B13,7.51,88.4
B14,0.414,–
B15,0.3,–
B16,0.472,–
B17,0.547,–
B18,1.22,–

# Molecular target: human glucagon receptor (human, UniProt P47871 26-477)
# Experiment: cell-based or functional assay
row,Binder,cAMP EC50 [nM]
1,B1,> 9950
2,B2,> 9950
3,B3,> 9950
4,B4,> 9950
5,B5,> 9950
6,B6,> 9950
7,B7,> 9950
8,B8,> 9950
9,B9,> 9950
10,B10,> 9950
11,B11,> 9950
12,B12,> 9950
13,B13,> 9950
14,B14,> 9950
15,B15,> 9950
16,B16,> 9950
17,B17,> 9950
18,B18,> 9950
